Usually Kd stands for the equilibrium constant for the complex coming apart. Lower therefore signals a tighter complex.

In the experiment the target is tomosyn (expressed in Sf9 cells) (UniProt Q9WU70). In words: far-Western, overlay or dot blot.
Chain of UniProt Q9WU70 (Q9WU70 whole entry): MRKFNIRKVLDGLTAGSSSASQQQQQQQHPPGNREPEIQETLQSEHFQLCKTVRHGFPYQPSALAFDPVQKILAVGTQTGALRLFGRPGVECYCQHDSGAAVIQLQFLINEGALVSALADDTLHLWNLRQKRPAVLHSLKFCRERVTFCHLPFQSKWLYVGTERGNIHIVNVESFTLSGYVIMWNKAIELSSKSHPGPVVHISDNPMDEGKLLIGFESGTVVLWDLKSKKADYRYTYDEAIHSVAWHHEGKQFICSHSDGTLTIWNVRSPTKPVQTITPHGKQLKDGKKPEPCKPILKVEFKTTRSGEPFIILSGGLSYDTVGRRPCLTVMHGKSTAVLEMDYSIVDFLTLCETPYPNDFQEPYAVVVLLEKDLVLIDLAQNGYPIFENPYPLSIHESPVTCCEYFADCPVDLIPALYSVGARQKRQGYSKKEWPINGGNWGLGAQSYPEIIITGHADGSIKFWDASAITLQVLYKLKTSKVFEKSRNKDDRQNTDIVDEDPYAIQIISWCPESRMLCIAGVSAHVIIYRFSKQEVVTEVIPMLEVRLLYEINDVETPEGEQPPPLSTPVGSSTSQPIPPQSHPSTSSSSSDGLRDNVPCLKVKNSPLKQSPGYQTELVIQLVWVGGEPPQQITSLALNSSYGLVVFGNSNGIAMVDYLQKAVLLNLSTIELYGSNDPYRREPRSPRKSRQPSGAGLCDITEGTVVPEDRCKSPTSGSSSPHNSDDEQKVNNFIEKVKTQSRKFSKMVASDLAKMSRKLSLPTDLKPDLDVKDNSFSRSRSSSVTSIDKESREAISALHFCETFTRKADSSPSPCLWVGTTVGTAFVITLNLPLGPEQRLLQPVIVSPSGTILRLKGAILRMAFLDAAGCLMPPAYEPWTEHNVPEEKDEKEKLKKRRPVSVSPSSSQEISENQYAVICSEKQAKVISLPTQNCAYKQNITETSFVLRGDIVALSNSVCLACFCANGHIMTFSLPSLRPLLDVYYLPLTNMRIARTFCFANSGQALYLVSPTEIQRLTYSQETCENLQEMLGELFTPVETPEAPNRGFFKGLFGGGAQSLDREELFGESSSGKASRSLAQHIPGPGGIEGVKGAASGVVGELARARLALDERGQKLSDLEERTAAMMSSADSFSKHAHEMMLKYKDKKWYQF

“syntaxin-1, nonphosphorylated form (recombinant) (from UniProt P32851 1-288) (natural protein)” yielded a Kd of 120 nM.

Source of the values: paper PMC2172130.
